Molecular target: the molecule itself
Experiment: gel filtration (Superdex 200); elution volume against monomer, dimer and tetramer standards

B1: monomeric eqFP611 variant as set forth in SEQ ID No. 1 (mRuby) (other)
chain: MNSLIKENMRMKVVLEGSVNGHQFKCTGEGEGNPYMGTQTMRIKVIEGGPLPFAFDILATSFMYGSRTFIKYPKGIPDFFKQSFPEGFTWERVTRYEDGGVITVMQDTSLEDGCLVYHAQVRGVNFPSNGAVMQKKTKGWEPNTEMMYPADGGLRGYTHMALKVDGGGHLSCSFVTTYRSKKTVGNIKMPGIHAVDHRLERLEESDNEMFVVQREHAVAKFAGLGGG
notes: not shown: N-terminal poly-His tag from the pQE-32 vector
Does B1 bind?
Result: no binding (tested: 4-30 mg/ml (0.16-1.2 mM))

Source: patent US20120107244A1 (UNIVERSIT T ULM, published 2012)
